Results taken from US20250262210A1 (TRUSTEES OF COLUMBIA UNIVERSITY IN THE CITY OF NEW YORK, published 2025).

Legend:
Assay in all cases: IP/MS, LZTR1 wild type-FLAG, U87
INTS1 = INTS1 (human, UniProt Q8N201 1-2190)
Outline: (§1)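 Gel slices were reduced with 5 mM DTT, alkylated with 11 mM IAA and digested overnight at 37° C. with trypsin. Peptides were analysed on an Orbitrap Fusion Tribrid by LC-MS/MS.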

RAPH1 = molecular target: T1, RAPH1 (human, UniProt Q70E73 1-1250, limits assumed)
T1 sequence (looked up): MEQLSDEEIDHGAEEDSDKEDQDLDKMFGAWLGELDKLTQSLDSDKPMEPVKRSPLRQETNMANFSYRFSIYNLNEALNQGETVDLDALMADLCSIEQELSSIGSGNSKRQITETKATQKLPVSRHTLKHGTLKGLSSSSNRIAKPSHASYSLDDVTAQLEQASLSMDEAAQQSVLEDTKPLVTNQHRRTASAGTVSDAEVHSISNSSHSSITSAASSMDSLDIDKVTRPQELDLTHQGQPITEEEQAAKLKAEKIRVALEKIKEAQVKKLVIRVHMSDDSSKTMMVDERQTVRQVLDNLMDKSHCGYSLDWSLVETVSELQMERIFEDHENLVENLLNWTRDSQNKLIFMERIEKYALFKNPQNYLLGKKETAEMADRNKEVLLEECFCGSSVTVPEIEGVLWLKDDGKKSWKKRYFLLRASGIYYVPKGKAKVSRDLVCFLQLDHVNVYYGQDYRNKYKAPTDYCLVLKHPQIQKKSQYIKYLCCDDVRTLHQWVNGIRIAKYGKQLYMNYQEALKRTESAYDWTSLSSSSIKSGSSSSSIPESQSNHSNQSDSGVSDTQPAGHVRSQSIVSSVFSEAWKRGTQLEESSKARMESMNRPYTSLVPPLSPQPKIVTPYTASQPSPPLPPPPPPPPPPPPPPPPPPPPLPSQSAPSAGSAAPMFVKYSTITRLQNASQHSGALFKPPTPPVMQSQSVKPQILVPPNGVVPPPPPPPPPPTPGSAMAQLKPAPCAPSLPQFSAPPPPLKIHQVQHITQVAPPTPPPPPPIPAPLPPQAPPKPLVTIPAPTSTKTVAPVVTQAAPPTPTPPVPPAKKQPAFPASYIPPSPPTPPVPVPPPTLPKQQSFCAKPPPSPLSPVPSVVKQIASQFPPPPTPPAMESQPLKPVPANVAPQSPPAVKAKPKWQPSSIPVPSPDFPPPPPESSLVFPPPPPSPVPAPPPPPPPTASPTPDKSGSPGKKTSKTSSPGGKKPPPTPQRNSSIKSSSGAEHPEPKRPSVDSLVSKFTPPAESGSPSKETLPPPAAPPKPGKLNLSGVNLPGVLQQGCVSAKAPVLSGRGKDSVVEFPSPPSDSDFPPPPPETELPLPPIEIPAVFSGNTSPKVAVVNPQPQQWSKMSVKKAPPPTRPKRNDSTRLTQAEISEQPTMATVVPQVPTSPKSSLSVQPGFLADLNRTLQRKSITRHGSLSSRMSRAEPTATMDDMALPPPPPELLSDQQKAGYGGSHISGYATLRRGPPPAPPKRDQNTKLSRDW
Outline: as §1

MAP4K4 = MAP4K4 (human, UniProt O95819 2-1239, limits assumed)
Outline: as §1

BRCA2 = BRCA2 (human, UniProt P51587 1-3418)
Outline: as §1

TRIM16 = TRIM16 (human, UniProt O95361 1-564, limits assumed)
Outline: as §1

Measured: binding result

Sequence of BRCA2 (P51587 whole entry): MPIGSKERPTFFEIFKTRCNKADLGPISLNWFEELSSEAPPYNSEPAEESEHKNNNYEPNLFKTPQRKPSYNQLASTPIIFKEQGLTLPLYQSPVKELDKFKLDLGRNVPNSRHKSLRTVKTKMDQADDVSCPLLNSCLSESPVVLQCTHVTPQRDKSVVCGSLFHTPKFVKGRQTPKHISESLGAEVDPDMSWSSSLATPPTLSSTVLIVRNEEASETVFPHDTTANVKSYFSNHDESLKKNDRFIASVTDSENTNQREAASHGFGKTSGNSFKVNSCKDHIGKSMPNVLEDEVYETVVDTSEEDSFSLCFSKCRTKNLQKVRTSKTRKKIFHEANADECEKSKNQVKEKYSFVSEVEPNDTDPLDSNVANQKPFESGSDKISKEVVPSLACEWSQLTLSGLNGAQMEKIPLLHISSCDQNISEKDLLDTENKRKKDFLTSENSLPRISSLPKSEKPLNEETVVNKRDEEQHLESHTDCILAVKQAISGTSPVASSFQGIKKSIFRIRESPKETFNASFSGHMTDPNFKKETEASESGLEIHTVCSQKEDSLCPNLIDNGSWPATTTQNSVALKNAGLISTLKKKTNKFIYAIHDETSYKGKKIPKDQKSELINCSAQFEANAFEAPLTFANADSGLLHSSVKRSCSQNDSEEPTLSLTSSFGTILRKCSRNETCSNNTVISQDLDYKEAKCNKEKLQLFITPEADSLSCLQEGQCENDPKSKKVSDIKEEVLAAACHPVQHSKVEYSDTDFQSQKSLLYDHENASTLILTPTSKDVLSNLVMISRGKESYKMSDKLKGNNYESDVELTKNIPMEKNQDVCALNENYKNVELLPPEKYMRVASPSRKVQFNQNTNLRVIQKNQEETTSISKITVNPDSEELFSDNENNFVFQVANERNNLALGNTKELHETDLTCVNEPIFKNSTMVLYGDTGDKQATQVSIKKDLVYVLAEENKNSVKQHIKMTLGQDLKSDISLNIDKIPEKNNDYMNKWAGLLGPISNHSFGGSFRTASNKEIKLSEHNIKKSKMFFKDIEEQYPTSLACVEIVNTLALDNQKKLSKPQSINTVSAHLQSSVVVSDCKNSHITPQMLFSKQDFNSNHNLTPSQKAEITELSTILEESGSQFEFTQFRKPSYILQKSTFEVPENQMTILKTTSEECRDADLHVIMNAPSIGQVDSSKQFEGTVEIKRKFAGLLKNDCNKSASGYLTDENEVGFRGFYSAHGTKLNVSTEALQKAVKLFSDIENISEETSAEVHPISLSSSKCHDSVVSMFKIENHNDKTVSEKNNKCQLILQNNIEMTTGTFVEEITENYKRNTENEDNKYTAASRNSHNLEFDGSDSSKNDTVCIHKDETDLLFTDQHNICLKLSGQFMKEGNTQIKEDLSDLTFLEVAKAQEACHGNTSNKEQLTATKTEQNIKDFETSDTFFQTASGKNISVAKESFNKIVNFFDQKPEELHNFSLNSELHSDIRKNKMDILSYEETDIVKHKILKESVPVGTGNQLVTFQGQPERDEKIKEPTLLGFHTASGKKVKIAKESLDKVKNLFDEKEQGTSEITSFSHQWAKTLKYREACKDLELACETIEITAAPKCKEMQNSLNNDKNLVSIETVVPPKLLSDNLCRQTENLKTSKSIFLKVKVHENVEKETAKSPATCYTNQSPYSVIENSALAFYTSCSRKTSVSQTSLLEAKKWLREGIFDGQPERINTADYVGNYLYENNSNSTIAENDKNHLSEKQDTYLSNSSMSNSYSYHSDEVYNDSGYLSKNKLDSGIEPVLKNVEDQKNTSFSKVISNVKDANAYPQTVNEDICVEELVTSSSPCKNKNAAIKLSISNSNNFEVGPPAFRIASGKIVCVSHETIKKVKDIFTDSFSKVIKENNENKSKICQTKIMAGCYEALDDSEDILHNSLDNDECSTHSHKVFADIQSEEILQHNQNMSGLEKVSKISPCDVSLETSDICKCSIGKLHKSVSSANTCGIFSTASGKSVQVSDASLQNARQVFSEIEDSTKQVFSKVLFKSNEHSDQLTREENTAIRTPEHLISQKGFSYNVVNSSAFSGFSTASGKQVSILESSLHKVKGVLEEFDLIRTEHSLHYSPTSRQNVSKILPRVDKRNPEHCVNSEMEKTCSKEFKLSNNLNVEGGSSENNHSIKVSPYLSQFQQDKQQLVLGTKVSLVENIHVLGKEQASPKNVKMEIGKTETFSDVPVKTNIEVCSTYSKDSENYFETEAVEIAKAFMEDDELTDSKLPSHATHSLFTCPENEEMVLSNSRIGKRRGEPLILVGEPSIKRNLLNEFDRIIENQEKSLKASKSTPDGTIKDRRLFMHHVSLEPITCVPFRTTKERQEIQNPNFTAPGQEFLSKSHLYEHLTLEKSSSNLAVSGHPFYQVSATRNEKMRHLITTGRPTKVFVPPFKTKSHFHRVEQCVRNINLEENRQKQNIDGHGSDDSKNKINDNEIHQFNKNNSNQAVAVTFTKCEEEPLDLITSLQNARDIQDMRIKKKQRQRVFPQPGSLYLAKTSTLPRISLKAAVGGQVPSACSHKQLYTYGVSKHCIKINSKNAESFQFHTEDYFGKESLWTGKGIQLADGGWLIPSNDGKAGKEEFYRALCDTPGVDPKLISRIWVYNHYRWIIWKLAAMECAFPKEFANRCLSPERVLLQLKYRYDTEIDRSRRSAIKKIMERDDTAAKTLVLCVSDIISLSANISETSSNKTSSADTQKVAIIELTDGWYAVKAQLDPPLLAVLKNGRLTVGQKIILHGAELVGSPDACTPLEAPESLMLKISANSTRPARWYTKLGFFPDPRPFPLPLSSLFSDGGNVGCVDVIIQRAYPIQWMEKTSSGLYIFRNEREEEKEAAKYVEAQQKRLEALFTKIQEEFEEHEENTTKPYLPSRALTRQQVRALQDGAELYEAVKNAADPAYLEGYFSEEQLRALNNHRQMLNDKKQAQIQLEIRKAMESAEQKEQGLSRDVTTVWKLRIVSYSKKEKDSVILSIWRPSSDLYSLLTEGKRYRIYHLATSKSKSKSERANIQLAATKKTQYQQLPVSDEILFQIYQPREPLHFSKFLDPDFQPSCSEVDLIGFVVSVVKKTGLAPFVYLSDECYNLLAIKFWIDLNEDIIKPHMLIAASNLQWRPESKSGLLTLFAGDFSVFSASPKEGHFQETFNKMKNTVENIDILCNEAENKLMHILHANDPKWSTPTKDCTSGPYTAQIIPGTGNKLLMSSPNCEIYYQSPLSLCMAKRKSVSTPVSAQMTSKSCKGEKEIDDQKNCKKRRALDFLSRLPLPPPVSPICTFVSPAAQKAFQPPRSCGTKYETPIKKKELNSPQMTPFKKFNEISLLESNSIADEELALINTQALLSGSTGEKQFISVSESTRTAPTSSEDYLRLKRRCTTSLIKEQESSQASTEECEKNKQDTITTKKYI
Sequence of MAP4K4 (O95819 2-1239 limits assumed): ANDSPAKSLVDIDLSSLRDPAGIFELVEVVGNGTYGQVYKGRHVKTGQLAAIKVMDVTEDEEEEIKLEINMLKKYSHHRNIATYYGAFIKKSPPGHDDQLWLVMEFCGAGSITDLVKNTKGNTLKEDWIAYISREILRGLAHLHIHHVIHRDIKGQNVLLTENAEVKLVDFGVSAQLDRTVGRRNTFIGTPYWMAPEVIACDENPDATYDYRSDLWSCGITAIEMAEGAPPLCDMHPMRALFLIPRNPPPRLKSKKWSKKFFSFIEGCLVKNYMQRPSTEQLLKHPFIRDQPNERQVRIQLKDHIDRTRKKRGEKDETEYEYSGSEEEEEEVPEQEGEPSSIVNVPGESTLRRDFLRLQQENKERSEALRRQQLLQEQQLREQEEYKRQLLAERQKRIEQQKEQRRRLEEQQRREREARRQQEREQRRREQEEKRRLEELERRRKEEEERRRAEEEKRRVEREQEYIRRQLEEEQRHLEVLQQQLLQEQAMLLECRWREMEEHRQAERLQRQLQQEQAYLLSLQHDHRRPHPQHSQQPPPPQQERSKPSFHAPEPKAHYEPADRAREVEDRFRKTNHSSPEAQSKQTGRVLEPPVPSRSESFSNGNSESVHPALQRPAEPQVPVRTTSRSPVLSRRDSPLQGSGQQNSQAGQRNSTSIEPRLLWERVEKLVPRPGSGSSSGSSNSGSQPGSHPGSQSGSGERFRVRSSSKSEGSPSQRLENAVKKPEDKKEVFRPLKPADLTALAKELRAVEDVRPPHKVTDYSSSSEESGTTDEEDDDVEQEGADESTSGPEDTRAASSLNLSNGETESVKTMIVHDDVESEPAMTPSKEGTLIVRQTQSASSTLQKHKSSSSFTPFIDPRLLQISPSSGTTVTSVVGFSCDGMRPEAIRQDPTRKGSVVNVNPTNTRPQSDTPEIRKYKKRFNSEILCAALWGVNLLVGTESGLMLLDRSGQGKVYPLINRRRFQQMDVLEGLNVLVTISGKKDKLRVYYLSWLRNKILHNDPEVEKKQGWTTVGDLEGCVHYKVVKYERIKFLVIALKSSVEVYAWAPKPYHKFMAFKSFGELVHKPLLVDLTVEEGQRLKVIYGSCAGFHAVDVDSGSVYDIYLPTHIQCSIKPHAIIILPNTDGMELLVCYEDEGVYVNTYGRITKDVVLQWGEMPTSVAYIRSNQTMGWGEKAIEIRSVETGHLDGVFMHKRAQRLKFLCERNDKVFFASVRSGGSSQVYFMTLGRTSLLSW

B1: LZTR1-FLAG (other, human, UniProt Q8N653 1-840, looked up)
chain: MAGPGSTGGQIGAAALAGGARSKVAPSVDFDHSCSDSVEYLTLNFGPFETVHRWRRLPPCDEFVGARRSKHTVVAYKDAIYVFGGDNGKTMLNDLLRFDVKDCSWCRAFTTGTPPAPRYHHSAVVYGSSMFVFGGYTGDIYSNSNLKNKNDLFEYKFATGQWTEWKIEGRLPVARSAHGATVYSDKLWIFAGYDGNARLNDMWTIGLQDRELTCWEEVAQSGEIPPSCCNFPVAVCRDKMFVFSGQSGAKITNNLFQFEFKDKTWTRIPTEHLLRGSPPPPQRRYGHTMVAFDRHLYVFGGAADNTLPNELHCYDVDFQTWEVVQPSSDSEVGGAEVPERACASEEVPTLTYEERVGFKKSRDVFGLDFGTTSAKQPTQPASELPSGRLFHAAAVISDAMYIFGGTVDNNIRSGEMYRFQFSCYPKCTLHEDYGRLWESRQFCDVEFVLGEKEECVQGHVAIVTARSRWLRRKITQARERLAQKLEQEAAPVPREAPGVAAGGARPPLLHVAIREAEARPFEVLMQFLYTDKIKYPRKGHVEDVLLIMDVYKLALSFQLCRLEQLCRQYIEASVDLQNVLVVCESAARLQLSQLKEHCLNFVVKESHFNQVIMMKEFERLSSPLIVEIVRRKQQPPPRTPLDQPVDIGTSLIQDMKAYLEGAGAEFCDITLLLDGHPRPAHKAILAARSSYFEAMFRSFMPEDGQVNISIGEMVPSRQAFESMLRYIYYGEVNMPPEDSLYLFAAPYYYGFYNNRLQAYCKQNLEMNVTVQNVLQILEAADKTQALDMKRHCLHIIVHQFTKVSKLPTLRSLSQQLLLDIIDSLASHISDKQCAELGADI
notes: Expressed in HEK 293T, HeLa or U87 cells; used as cell lysate; also called LZTR1 wild type-FLAG; LZTR1 WT; not shown: FLAG tag at the C-terminus
binds: INTS1 | RAPH1 | MAP4K4 | BRCA2 | TRIM16
